Reference: patent publication US20210214414A1 (Pfizer, published 2021)

Experiments:
Rat SLIT1-N = target: T1, Rat SLIT1-N (rat, UniProt O88279 34-1124, limits assumed); test: HTRF competition: d2-labelled rat SLIT1-N binding to human ROBO2 on HEK293 cells; geometric mean, n=3
T1 construct: domain: SLIT1-N; d2-labelled in the HTRF assay
T1 sequence (looked up): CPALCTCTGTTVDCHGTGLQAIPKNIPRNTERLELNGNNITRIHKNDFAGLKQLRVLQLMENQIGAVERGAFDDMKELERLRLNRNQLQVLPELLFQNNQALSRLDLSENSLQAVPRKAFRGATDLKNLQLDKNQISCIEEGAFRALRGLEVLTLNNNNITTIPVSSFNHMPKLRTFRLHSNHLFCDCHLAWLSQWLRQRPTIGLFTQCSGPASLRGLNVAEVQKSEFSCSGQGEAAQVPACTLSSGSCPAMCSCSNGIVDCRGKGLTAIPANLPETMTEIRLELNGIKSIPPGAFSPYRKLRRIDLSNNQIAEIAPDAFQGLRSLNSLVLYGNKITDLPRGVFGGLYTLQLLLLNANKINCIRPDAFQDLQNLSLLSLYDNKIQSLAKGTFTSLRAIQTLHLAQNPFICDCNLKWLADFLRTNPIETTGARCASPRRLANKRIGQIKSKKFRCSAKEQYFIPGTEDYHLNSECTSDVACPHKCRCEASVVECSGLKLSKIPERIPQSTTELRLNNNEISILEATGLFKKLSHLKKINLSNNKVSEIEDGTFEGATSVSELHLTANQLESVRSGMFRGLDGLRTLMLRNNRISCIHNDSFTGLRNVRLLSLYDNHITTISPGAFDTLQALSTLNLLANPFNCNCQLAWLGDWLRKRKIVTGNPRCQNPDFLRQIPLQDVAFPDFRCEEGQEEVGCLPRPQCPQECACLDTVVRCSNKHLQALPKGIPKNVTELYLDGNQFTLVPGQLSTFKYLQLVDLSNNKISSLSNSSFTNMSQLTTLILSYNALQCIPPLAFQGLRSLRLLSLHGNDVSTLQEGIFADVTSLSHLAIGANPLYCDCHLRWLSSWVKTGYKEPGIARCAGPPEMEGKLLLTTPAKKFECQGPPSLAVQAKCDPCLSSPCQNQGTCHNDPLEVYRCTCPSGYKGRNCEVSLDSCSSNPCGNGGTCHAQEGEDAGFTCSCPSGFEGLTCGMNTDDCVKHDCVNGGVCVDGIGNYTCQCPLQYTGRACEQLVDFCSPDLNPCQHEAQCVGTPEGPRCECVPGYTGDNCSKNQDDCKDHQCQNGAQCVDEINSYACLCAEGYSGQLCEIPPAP
Experimental: (§1) After incubation, fluorescence at 665 nm and 620 nm was measured on an Envision multilabel plate reader. The HTRF Ratio was calculated as follows: fluorescence at 665 nm/fluorescence at 620 nm×10,000. […] The IC₅₀ for each SLITx-N was determined using an 11-point, 4-fold dilution series with a top concentration of 4000 nM.

Rabbit SLIT2-N = target: T2, Rabbit SLIT2-N (rabbit, UniProt G1TMD3 31-1121); test: HTRF competition: d2-labelled rabbit SLIT2-N binding to human ROBO2 on HEK293 cells; geometric mean, n=3
T2 construct: domain: SLIT2-N; d2-labelled in the HTRF assay
T2 sequence: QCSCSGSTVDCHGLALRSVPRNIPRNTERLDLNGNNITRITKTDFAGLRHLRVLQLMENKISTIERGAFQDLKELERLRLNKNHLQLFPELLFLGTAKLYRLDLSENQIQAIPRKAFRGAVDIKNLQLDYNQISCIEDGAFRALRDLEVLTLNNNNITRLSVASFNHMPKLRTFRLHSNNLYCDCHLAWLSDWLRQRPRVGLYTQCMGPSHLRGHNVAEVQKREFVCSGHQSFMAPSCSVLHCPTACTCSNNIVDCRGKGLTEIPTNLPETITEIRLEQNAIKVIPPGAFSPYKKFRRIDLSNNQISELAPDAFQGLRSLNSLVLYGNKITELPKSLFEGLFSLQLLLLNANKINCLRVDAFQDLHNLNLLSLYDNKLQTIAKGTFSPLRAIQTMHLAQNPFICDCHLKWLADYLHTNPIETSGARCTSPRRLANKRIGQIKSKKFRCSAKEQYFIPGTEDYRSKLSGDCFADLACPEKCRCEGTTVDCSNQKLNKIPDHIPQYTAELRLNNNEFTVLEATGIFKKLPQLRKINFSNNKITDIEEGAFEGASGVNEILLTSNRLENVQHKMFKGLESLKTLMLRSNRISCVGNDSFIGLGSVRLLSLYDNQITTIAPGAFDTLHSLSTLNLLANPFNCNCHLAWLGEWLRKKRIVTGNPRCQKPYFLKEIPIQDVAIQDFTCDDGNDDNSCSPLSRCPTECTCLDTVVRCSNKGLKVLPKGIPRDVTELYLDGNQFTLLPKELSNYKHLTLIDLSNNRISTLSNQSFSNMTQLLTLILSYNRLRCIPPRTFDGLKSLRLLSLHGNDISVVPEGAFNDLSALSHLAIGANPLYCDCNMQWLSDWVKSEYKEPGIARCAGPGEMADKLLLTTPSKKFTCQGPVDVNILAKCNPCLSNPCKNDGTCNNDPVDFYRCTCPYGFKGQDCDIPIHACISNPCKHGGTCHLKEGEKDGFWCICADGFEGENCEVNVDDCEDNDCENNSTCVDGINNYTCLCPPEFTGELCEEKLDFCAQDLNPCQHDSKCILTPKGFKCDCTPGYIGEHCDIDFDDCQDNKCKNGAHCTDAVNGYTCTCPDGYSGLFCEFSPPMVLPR
Experimental: as §1

IC50 (Rat SLIT1-N): 8.3 nM | IC50 (Rabbit SLIT2-N): 5.7 nM
B1: ROBO2-Fc 2.2 (Fc fusion)
chain: SRLRQEDFPPRIVEHPSDVIVSKGEPTTLNCKAEGRPTPTIEWYKDGERVETDKDDPRSHRMLLPSGSLFFLRIVHGRRSKPDEGSYVCVARNYLGEAVSRNASLEVALLRDDFRQNPTDVVVAAGEPAILECQPPRGHPEPTIYWKKDKVRIDDKEERISIRGGKLMISNTRKSDAGMYTCVGTNMVGERDSDPAELTVFERGGSGGSEPKSSDKTHTCPPCPAPEAAGAPSVFLFPPKPKDTLMISRTPEVTCVVVDVSHEDPEVKFNWYVDGVEVHNAKTKPREEQYNSTYRVVSVLTVLHQDWLNGKEYKCKVSNKALPAPIEKTISKAKGQPREPQVYTLPPSREEMTKNQVSLTCLVKGFYPSDIAVEWESNGQPENNYKTTPPVLDSDGSFFLYSKLTVDKSRWQQGNVFSCSVMHEALHNHYTQKSLSLSPG
notes: Labelled with Alexa Fluor 647 in the flow cytometry assay; also called ROBO-Fc 2.2; ROBO2-Fc 2.2-AF647
